# B1: Coiled-coil domain-containing protein 141 (Homo sapiens), Q6ZP82-1 (parent)
# chain: MSSQGSPSVALSTTTVSSVAVQAGDSKIVIAVIKCGKWVQLQLAESQPNLLEIGSSQDETKKLLHDHELLLAKLKALEDRVWELLQEADKTAEENKDQSQVYDAMAETLGEAWAALVSMLERRTELLRLTSEFFENALEFAIKIDQAEDFLQNTHEFESAESLKSLLQLHEHHTKELLERSLALLNKSQQLTDFIEKFKCEGPNVNPELTQGAHSSCLKVDRLLELLQDRRRQLDKYLKQQWQELSQVLQICQWDQQENQVTCWFQKTIRNLQEQSLGSSLSDNEDRIHKQEELIIKAKEWNSAVEKLKSEALRILLSKDYVEKEHLQLSHQKLSQLQEEFGQLMVERNTWLKKANEFFNSANKAFDVLGRVEAYLKLLKSEGLSLAVLAVRHEELHRKIKDCTTDALQKGQTLISQVDSCSSQVSGIHEMMGCIKRRVDHLTEQCSAHKEYALKKQQLTASVEGYLRKVEMSIQKISPVLSNAMDVGSTRSESEKILNKYLELDIQAKETSHELEAAAKTMMEKNEFVSDEMVSLSSKARWLAEELNLFGQSIDYRSQVLQTYVAFLKSSEEVEMQFQSLKEFYETEIPQKEQDDAKAKHCSDSAEKQWQLFLKKSFITQDLGLEFLNLINMAKENEILDVKNEVYLMKNTMENQKAEREELSLLRLAWQLKATESKPGKQQWAAFKEQLKKTSHNLKLLQEALMPVSALDLGGSLQFILDLRQKWNDMKPQFQQLNDEVQYIMKESEELTGRGAPVKEKSQQLKDLIHFHQKQKERIQDYEDILYKVVQFHQVKEELGRLIKSRELEFVEQPKELGDAHDVQIHLRCSQEKQARVDHLHRLALSLGVDIISSVQRPHCSNVSAKNLQQQLELLEEDSMKWRAKAEEYGRTLSRSVEYCAMRDEINELKDSFKDIKKKFNNLKFNYTKKNEKSRNLKALKYQIQQVDMYAEKMQALKRKMEKVSNKTSDSFLNYPSDKVNVLLEVMKDLQKHVDDFDKVVTDYKKNLDLTEHFQEVIEECHFWYEDASATVVRVGKYSTECKTKEAVKILHQQFNKFIAPSVPQQEERIQEATDLAQHLYGLEEGQKYIEKIVTKHKEVLESVTELCESLTELEEKLKQGDVLKMNPNLEDFHYDYIDLLKEPAKNKQTIFNEERNKGQVQVADLLGINGTGEERLPQDLKVSTDKEGGVQDLLLPEDMLSGEEYECVSPDDISLPPLPGSPESPLAPSDMEVEEPVSSSLSLHISSYGVQAGTSSPGDAQESVLPPPVAFADACNDKRETFSSHFERPYLQFKAEPPLTSRGFVEKSTALHRISAEHPESMMSEVHERALQQHPQAQGGLLETREKMHADNNFTKTQDRLHASSDAFSGLRFQSGTSRGYQRQMVPREEIKSTSAKSSVVSLADQAPNFSRLLSNVTVMEGSPVTLEVEVTGFPEPTLTWWVAYNDKP
# partner: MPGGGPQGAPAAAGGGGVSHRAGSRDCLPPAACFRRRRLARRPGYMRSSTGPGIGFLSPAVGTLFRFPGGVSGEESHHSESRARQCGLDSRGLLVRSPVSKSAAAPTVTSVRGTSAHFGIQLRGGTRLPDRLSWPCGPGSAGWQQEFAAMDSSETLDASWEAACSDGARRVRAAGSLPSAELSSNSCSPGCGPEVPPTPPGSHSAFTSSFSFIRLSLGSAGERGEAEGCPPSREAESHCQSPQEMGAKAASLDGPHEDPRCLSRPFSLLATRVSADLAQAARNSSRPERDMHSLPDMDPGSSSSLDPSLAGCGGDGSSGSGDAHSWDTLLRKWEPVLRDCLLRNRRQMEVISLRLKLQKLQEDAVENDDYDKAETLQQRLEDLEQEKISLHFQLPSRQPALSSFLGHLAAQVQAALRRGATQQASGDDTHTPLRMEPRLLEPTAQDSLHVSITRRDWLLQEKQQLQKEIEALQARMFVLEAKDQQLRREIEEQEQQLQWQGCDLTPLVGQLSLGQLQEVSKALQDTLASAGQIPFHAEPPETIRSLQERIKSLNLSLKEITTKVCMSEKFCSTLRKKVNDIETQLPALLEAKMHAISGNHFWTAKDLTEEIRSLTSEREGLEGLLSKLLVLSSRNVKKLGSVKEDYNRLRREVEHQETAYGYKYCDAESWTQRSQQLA
# B2: Coiled-coil domain-containing protein 141 (Homo sapiens), Q6ZP82-1 (parent)
# chain: B1 chain
# partner: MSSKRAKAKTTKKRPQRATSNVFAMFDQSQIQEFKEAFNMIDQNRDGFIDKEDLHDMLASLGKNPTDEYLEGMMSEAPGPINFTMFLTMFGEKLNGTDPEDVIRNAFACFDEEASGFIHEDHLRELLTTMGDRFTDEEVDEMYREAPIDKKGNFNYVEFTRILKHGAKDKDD
# B3: Myosin regulatory light polypeptide 9 (Homo sapiens), P24844 (parent)
# chain: B2 partner
# Variants of: B1
# Conditions: with DISC1, Q9NRI5-3
row,Variant,effect of a mutation on the interaction
1,R828W,with no effect

# Variants of: B2
# Conditions: with myl9_human MYL9, P24844
row,Variant,effect of a mutation on the interaction
1,R828W,disrupting interaction strength

# Variants of: B3
# Conditions: with cc141_mouse Ccdc141, E9Q8Q6
# Chain of cc141_mouse Ccdc141, E9Q8Q6 (E9Q8Q6 whole entry): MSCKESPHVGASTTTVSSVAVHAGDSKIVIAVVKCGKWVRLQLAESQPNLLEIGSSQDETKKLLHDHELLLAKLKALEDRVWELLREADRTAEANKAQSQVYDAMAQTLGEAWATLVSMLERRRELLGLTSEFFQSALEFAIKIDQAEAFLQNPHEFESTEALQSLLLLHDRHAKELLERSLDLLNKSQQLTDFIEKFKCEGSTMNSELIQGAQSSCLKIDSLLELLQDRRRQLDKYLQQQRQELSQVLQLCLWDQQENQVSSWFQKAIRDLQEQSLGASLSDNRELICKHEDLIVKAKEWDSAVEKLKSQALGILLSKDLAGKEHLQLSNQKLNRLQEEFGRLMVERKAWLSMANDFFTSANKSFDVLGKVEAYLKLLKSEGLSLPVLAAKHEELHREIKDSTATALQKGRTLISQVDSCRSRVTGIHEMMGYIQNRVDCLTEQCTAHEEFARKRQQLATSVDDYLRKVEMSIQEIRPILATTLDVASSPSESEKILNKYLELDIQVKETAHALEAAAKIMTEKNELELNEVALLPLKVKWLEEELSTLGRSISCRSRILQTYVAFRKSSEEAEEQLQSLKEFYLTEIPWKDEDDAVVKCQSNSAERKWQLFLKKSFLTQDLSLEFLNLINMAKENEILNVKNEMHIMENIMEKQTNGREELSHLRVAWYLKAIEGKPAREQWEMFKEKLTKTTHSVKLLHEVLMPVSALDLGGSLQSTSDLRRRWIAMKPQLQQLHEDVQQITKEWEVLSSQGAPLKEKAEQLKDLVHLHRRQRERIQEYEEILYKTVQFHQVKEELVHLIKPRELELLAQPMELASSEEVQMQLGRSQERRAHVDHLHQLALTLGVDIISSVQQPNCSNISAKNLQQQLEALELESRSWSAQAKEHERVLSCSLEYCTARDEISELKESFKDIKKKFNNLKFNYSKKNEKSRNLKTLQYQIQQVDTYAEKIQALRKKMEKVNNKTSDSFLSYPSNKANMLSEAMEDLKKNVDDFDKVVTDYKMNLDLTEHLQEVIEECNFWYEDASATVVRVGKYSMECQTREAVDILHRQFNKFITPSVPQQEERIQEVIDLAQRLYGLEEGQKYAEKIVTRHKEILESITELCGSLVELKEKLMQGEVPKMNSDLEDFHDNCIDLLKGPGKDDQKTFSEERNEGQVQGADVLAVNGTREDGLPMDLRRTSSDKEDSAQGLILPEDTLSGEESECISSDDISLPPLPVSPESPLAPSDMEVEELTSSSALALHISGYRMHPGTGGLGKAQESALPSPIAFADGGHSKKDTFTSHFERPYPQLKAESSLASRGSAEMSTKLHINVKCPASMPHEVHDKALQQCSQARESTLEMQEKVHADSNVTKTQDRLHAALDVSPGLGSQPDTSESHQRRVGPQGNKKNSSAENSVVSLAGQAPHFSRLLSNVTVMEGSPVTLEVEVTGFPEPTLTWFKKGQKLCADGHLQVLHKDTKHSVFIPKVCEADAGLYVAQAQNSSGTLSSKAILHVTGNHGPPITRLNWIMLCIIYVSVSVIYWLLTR
row,Variant,effect of a mutation on the interaction
1,MSSKRAKAKTTKKRPQRAAANVFAMFDQSQIQEFKEAFNMIDQNRDGFIDKEDLHDMLASLGKNPTDEYLEGMMSEAPGPINFTMFLTMFGEKLNGTDPEDVIRNAFACFDEEASGFIHEDHLRELLTTMGDRFTDEEVDEMYREAPIDKKGNFNYVEFTRILKHGAKDKDD [T19A;S20A],disrupting interaction strength
2,MSSKRAKAKTTKKRPQRADDNVFAMFDQSQIQEFKEAFNMIDQNRDGFIDKEDLHDMLASLGKNPTDEYLEGMMSEAPGPINFTMFLTMFGEKLNGTDPEDVIRNAFACFDEEASGFIHEDHLRELLTTMGDRFTDEEVDEMYREAPIDKKGNFNYVEFTRILKHGAKDKDD [T19D;S20D],increasing interaction strength

# — IntAct's records for PubMed 20956536
